Blank lines part the entries; values can stand above or below the binder they belong to.
Tests used:
[1] = molecular target: T1, human PTK7 on the surface of PTK7-expressing tumor cell lines (human, UniProt Q13308 31-1070); assay: flow cytometry on MDA-MB-468 cells
T1 construct: whole, on cells
T1 sequence (looked up): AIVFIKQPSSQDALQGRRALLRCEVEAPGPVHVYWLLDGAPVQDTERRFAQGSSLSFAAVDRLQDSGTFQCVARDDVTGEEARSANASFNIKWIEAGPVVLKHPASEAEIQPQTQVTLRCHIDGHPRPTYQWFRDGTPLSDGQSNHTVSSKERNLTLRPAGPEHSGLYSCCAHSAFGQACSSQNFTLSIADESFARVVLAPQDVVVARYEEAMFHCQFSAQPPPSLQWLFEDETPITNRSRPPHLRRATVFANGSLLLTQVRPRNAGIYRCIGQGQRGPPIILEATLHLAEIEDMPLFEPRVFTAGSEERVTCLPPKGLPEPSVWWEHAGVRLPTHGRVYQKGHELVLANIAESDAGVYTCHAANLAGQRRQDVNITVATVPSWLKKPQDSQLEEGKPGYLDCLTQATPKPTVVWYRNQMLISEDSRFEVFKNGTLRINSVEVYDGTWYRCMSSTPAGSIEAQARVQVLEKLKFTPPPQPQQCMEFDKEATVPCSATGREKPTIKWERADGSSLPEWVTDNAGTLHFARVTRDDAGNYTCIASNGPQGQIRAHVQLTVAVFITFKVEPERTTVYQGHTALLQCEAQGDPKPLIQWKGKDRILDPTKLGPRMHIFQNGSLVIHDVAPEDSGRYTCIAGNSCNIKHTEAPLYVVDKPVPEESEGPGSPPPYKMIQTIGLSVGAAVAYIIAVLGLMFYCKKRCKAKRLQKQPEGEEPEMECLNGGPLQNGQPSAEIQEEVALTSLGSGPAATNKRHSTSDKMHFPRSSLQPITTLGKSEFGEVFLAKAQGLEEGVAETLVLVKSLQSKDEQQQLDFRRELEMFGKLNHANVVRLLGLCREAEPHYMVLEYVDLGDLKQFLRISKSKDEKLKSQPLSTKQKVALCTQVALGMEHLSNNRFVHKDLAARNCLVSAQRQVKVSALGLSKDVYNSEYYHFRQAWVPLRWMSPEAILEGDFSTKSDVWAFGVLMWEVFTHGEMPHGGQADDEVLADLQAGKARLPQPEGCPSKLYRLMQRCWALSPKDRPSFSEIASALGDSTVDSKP

[2] = molecular target: T2, human PTK7 extra-cellular domain (ECD) linked to His tag (human, UniProt Q13308 31-704); assay: ELISA screening of hybridoma supernatants on human PTK7-his
T2 construct: extracellular domain; also called hPTK7-his; human PTK7-his protein; not shown: His tag
T2 sequence (looked up): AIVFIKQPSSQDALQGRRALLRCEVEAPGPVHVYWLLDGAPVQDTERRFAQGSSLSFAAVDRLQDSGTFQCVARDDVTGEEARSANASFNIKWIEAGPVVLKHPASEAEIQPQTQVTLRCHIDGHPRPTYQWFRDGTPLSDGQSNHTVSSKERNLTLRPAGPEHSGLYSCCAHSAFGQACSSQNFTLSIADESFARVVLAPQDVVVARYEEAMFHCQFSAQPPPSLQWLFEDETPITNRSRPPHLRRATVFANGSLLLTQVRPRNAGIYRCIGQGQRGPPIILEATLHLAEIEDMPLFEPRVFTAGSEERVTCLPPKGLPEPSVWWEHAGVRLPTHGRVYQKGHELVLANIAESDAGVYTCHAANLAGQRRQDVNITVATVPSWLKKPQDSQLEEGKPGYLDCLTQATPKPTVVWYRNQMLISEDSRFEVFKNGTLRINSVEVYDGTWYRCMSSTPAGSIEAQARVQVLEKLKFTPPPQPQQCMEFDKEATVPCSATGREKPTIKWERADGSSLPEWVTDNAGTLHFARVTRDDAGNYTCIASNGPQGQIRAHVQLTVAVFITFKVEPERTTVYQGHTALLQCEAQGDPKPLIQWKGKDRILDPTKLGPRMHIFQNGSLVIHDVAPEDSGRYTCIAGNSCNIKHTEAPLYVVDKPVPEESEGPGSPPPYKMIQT
Protocol: The cells were resuspended with an appropriate amount of electroporation buffer to ensure the cell concentration of about 2×10⁷ cells/mL. The cell suspension was added to a 9 mL electroporation tank for fusion. After fusion, the cell suspension was transferred to 20 mL RPMI 1640 complete medium containing 20% FBS and then left at room temperature for 20 min. The fused cells were resuspended with RPMI 1640 medium containing 1×HAT, 1×BIOMYC3, and 20% FBS. The cell suspension was added to several 96-well cell culture plates at 100 ul/well to ensure that the cell volume per well was about 5×10⁴ cells/well, and the plates were placed in a 37° C. cell incubator. After 7 days, additional 100 μL of RPMI 1640 complete medium containing 20% FBS, 1×HAT, and 1×BIOMYC-3 was added to each well. After 10 days, the cell culture supernatants from hybridoma parent clones were collected and used for screening by binding to human and cynomolgus monkey PTK7-his protein by ELISA.

[3] = molecular target: T1, human PTK7 on the surface of …; assay: cell-based or functional assay

binding result [1]: binds
binding result [2]: binds
B1: murine antibody m2C8 (antibody, V domains shown)
VH: QIQLVQSGPELKKPGETVKISCKASGYTFTTYGMSWVKQAPGKGLKWMGWINTHSGVPTYVDEFKGRSAFSLETSASTAYLQINNLKNEDTATYFCARSPFDYGSRGAWFVYWGQGTLVTVSS
VL: DVLMTQTPLSLPVSLGDQASISCRSSQSIVHNNGDTYLEWYLQKPGQSPKLLIYKVSNRFPGVPDRFSGSGSGTDFTLKISRVEAEDLGLYYCFQGSHVPWTFGGGTKLEIK
notes: Mouse hybridoma clone, tested as culture supernatant

binding result [1]: binds
binding result [2]: binds
B2: murine antibody m2C5 (antibody, V domains shown)
VH: EVQLLSSGPELVTPGASVKISCKASGYTFTDYYINWLKQSHGKSLEWIGDINPNSGGPVYNQKFMAKATLTVDKTSNTAYMELRSLTSEDSAVYYCARGDYYGSNYNYWGQGTTLTVSS
VL: DILLTQSPAILSVSPGERVSFSCRASQNIGTSIHWYQQRTNGSPRLLIKFASESISGIPSRFSGSGSGTDFALTINSVESEDIADYYCQQSNNWPYTFGGGTKLEIK
notes: as for B1

B3: PRO1107 (2C8-LD343 (8)) (other)
VH: QIQLVQSGAEVKKPGASVKVSCKASGYTFTTYGMSWVRQAPGQGLEWMGWINTHSGVPTYVDEFKGRVTMTLDTSTSTAYMELSSLRSEDTAVYYCARSPFDYGSRGAWFVYWGQGTTVTVSS
VL: DVVMTQSPDSLAVSLGERATINCRSSQSIVHNSGDTYLEWYQQKPGQPPKLLIYKVSNRFPGVPDRFSGSGSGTDFTLTISSLQAEDLAVYYCFQGSHVPWTFGGGTKVEIK
modifications: drug-linker LD343 (MMAE payload) coupled to cysteines of the TCEP-reduced antibody; DAR 7.5 by LC-MS; the chain carrying each drug is not stated
IC50 of in vitro cytotoxicity (Cell-titre Glo, 96 h), Detroit 562 cells [3]: 8.2 nM
IC50 of in vitro cytotoxicity (Cell-titre Glo, 96 h), MDA-MB-468 cells [3]: 0.00014 nM
IC50 of in vitro cytotoxicity (Cell-titre Glo, 96 h), OVCAR-3 cells [3]: 0.0011 nM
IC50 of in vitro cytotoxicity (Cell-titre Glo, 96 h), PA-1 cells [3]: 0.008 nM
IC50 of in vitro cytotoxicity (Cell-titre Glo, 96 h), SNG-M cells [3]: 0.02 nM
IC50 of in vitro cytotoxicity (Cell-titre Glo, 96 h), SW780 cells [3]: 27.4 nM

binding result [1]: binds
binding result [2]: binds
B4: murine antibody m13C4 (antibody, V domains shown)
VH: EVKLVESGGGLVKPGGSLKLSCAASGFAFSTYDMFWFRQTPEKRLEWVATISSGGGYTYYPGSVKGRFTISRDNARNTLYLQMSSLRSEDTALYYCVRPLLRDSYFYFDVWGAGTTVTVSS
VL: DIVMTQSPAIMSTSPGEKVTMTCRASSSVSSSYLHWYQQKSGASPKLWIFRTSNLASGVPARFSGSGSGTSYSLTISSVEAEDAATYYCQQYSGYPLTFGAGTKLELK
notes: as for B1
